{
  "source": "patent US20050287527A1",
  "about": "“Quantitative ranking of transient ligand binding to target biomolecules” (National Research Council of Canada, priority 2002, published 2005)",
  "key": {"[1]": {"target": "human α-thrombin (human), P00734", "test": "15N CPMG NMR relaxation dispersion of thrombin-cleaved FD22, two-site fit at the highest thrombin concentration; Arg47; FD22-C present; 288 K"}, "[2]": {"target": "human α-thrombin (human), P00734", "test": "15N CPMG NMR relaxation dispersion of thrombin-cleaved FD22, two-site fit, highest thrombin:ligand ratio; Arg47; FD22-C present; 288 K"}, "[3]": {"target": "human prothrombin (human), P00734", "test": "15N CPMG NMR relaxation dispersion, full three-site fit of eighteen curves; 298 K"}, "[4]": {"target": "human prothrombin (human), P00734", "test": "15N CPMG NMR relaxation dispersion, linear three-site fit of Glu57; 298 K"}, "[5]": {"target": "human prothrombin (human), P00734", "test": "15N CPMG NMR relaxation dispersion, linear three-site fit of eighteen curves; 298 K"}, "[6]": {"target": "human prothrombin (human), P00734", "test": "15N CPMG NMR relaxation dispersion, two-site fit; Glu58; 288 K"}, "[7]": {"target": "human prothrombin (human), P00734", "test": "15N CPMG NMR relaxation dispersion, two-site fit; Phe56; 288 K"}, "[8]": {"target": "human prothrombin (human), P00734", "test": "15N CPMG NMR relaxation dispersion, two-site fit; Tyr63; 288 K"}, "[9]": {"target": "human prothrombin (human), P00734", "test": "15N CPMG NMR relaxation dispersion, two-site fit; Glu62; 288 K"}, "[10]": {"target": "human prothrombin (human), P00734", "test": "15N CPMG NMR relaxation dispersion, two-site fit; Ile59; 288 K"}, "[11]": {"target": "human prothrombin (human), P00734", "test": "15N CPMG NMR relaxation dispersion, two-site fit; Glu57; 288 K"}},
  "data": [
    {"binder": "FDPR (modifications not checked)", "note": "[FD22-N]", "values": [
      {"measurement": "koff", "setting": "[1]", "result": 310, "unit": "s⁻¹"},
      {"measurement": "pb (apparent fraction of the bound peptide)", "setting": "[2]", "result": 3.2, "unit": "%"}
    ]},
    {"binder": "DFEEIPEEYLQ (not fully specified; modifications not checked)", "note": "[N-acetyl-Hir(55-65)]", "values": [
      {"measurement": "pb1 (population of the first bound state)", "setting": "[3]", "result": 1.45, "unit": "%"},
      {"measurement": "pb2 (population of the second bound state)", "setting": "[3]", "result": 1.5, "unit": "%"},
      {"measurement": "pb (total bound population)", "setting": "[3]", "result": 3, "unit": "%"},
      {"measurement": "pb1 (population of the dissociation-competent bound state)", "setting": "[4]", "result": 1.3, "unit": "%"},
      {"measurement": "pb2 (population of the second bound state)", "setting": "[4]", "result": 4, "unit": "%"},
      {"measurement": "pb=pb1+pb2 (total bound population)", "setting": "[4]", "result": 5.3, "unit": "%"},
      {"measurement": "pb1 (population of the first bound state)", "setting": "[5]", "result": 2.3, "unit": "%"},
      {"measurement": "pb2 (population of the second bound state)", "setting": "[5]", "result": 1, "unit": "%"},
      {"measurement": "pb (total bound population)", "setting": "[5]", "result": 3.35, "unit": "%"}
    ]},
    {"binder": "GDFEEIPEEYLQ (modifications not checked)", "note": "[Hir(54-65)]", "values": [
      {"measurement": "pb (apparent fraction of the bound peptide)", "setting": "[6]", "result": 6.5, "unit": "%"},
      {"measurement": "pb (apparent fraction of the bound peptide)", "setting": "[7]", "result": 4.5, "unit": "%"},
      {"measurement": "pb (apparent fraction of the bound peptide)", "setting": "[8]", "result": 6.7, "unit": "%"},
      {"measurement": "pb (apparent fraction of the bound peptide)", "setting": "[9]", "result": 6.9, "unit": "%"},
      {"measurement": "pb (apparent fraction of the bound peptide)", "setting": "[10]", "result": 6, "unit": "%"},
      {"measurement": "pb (apparent fraction of the bound peptide)", "setting": "[11]", "result": 4.9, "unit": "%"}
    ]}
  ]
}
